This passage reports Kd results from article PMC10786891, “Massively parallel profiling of RNA-targeting CRISPR-Cas13d”.

In general, Kd refers to a measure of binding affinity in units of concentration. High values mean lower affinity, low ones higher affinity.

First the molecules themselves.
T1: EsCas13d, nuclease-dead (Eubacterium siraeum, UniProt B0MS50, R295A;H300A;R849A;H854A)
T1 sequence: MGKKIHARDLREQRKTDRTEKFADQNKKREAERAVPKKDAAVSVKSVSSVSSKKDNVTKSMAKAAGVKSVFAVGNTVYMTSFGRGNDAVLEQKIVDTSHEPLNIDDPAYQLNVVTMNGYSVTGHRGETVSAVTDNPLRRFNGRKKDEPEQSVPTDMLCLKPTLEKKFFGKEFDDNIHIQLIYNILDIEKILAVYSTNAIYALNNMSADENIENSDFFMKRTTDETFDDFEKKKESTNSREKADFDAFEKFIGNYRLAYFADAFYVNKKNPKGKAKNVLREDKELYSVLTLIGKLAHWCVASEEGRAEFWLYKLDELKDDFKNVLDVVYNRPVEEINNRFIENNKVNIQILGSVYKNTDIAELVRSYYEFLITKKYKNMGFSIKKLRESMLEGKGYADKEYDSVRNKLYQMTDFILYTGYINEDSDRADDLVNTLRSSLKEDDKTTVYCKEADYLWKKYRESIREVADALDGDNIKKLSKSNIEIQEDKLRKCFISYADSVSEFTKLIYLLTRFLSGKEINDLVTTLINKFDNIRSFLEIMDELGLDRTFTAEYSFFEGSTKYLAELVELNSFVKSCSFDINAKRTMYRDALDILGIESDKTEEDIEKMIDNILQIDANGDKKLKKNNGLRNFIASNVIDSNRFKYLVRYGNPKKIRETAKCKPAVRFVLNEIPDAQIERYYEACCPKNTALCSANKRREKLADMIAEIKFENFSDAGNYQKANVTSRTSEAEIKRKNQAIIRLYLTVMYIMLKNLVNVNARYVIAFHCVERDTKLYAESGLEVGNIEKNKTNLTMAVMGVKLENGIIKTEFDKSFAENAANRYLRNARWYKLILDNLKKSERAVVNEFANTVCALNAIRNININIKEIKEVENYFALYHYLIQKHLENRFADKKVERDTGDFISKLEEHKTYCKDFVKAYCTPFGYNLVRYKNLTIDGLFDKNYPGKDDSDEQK

B1: target 1 insA 3' of 12,insU 3' of 2 (mixed)
RNA 1: CACCCGUGCAAAAAUGCAGGGGUCUAAAACUGAGCGGAUAACCUCUCUAUGG
RNA 2: GGGAAUGGAUCCACAUCUACGAAUUCGUACCAUAGAGAGGAUUAUCCGCUCUACCGAGAUCGGAAGAGCACACGU
B2: target 1 insC 3' of 14,insC 3' of 14 (mixed)
RNA 1: CACCCGUGCAAAAAUGCAGGGGUCUAAAACUGAGCGGAUAACCUCUCUAUGG
RNA 2: GGGAAUGGAUCCACAUCUACGAAUUCGUACCAUAGAGACCGGUUAUCCGCUCACCGAGAUCGGAAGAGCACACGU
B3: target 1 insC 3' of 20,insC 3' of 5 (mixed)
RNA 1: CACCCGUGCAAAAAUGCAGGGGUCUAAAACUGAGCGGAUAACCUCUCUAUGG
RNA 2: GGGAAUGGAUCCACAUCUACGAAUUCGUACCACUAGAGAGGUUAUCCGCCUCACCGAGAUCGGAAGAGCACACGU
B4: target 1 insC 3' of 10,insU 3' of 5 (mixed)
RNA 1: CACCCGUGCAAAAAUGCAGGGGUCUAAAACUGAGCGGAUAACCUCUCUAUGG
RNA 2: GGGAAUGGAUCCACAUCUACGAAUUCGUACCAUAGAGAGGUUCAUCCGUCUCACCGAGAUCGGAAGAGCACACGU
B5: target 1 del2,del14 (mixed)
RNA 1: CACCCGUGCAAAAAUGCAGGGGUCUAAAACUGAGCGGAUAACCUCUCUAUGG
RNA 2: GGGAAUGGAUCCACAUCUACGAAUUCGUACCAUAGAGGGUUAUCCGCUACCGAGAUCGGAAGAGCACACGU
B6: target 1 insG 3' of 22,insA 3' of 21 (mixed)
RNA 1: CACCCGUGCAAAAAUGCAGGGGUCUAAAACUGAGCGGAUAACCUCUCUAUGG
RNA 2: GGGAAUGGAUCCACAUCUACGAAUUCGUACGCAAUAGAGAGGUUAUCCGCUCACCGAGAUCGGAAGAGCACACGU
B7: target 1 complement block 2-8 (mixed)
RNA 1: CACCCGUGCAAAAAUGCAGGGGUCUAAAACUGAGCGGAUAACCUCUCUAUGG
RNA 2: GGGAAUGGAUCCACAUCUACGAAUUCGUACCAUAGAGAGGUUAAGGCGAGACCGAGAUCGGAAGAGCACACGU
B8: target 1 complement block 1-8 (mixed)
RNA 1: CACCCGUGCAAAAAUGCAGGGGUCUAAAACUGAGCGGAUAACCUCUCUAUGG
RNA 2: GGGAAUGGAUCCACAUCUACGAAUUCGUACCAUAGAGAGGUUAAGGCGAGUCCGAGAUCGGAAGAGCACACGU
B9: target 1 insA 3' of 5,insG 3' of 4 (mixed)
RNA 1: CACCCGUGCAAAAAUGCAGGGGUCUAAAACUGAGCGGAUAACCUCUCUAUGG
RNA 2: GGGAAUGGAUCCACAUCUACGAAUUCGUACCAUAGAGAGGUUAUCCGACGUCACCGAGAUCGGAAGAGCACACGU
B10: target 1 insC 3' of 9,insC 3' of 9 (mixed)
RNA 1: CACCCGUGCAAAAAUGCAGGGGUCUAAAACUGAGCGGAUAACCUCUCUAUGG
RNA 2: GGGAAUGGAUCCACAUCUACGAAUUCGUACCAUAGAGAGGUUACCUCCGCUCACCGAGAUCGGAAGAGCACACGU
B11: target 1 insU 3' of 6,insG 3' of 1 (mixed)
RNA 1: CACCCGUGCAAAAAUGCAGGGGUCUAAAACUGAGCGGAUAACCUCUCUAUGG
RNA 2: GGGAAUGGAUCCACAUCUACGAAUUCGUACCAUAGAGAGGUUAUCCUGCUCAGCCGAGAUCGGAAGAGCACACGU
B12: target 1 insC 3' of 18,insU 3' of 9 (mixed)
RNA 1: CACCCGUGCAAAAAUGCAGGGGUCUAAAACUGAGCGGAUAACCUCUCUAUGG
RNA 2: GGGAAUGGAUCCACAUCUACGAAUUCGUACCAUACGAGAGGUUAUUCCGCUCACCGAGAUCGGAAGAGCACACGU
B13: target 1 U3A,G13C (mixed)
RNA 1: CACCCGUGCAAAAAUGCAGGGGUCUAAAACUGAGCGGAUAACCUCUCUAUGG
RNA 2: GGGAAUGGAUCCACAUCUACGAAUUCGUACCAUAGAGACGUUAUCCGCACACCGAGAUCGGAAGAGCACACGU
B14: target 1 insC 3' of 16,insG 3' of 8 (mixed)
RNA 1: CACCCGUGCAAAAAUGCAGGGGUCUAAAACUGAGCGGAUAACCUCUCUAUGG
RNA 2: GGGAAUGGAUCCACAUCUACGAAUUCGUACCAUAGACGAGGUUAUGCCGCUCACCGAGAUCGGAAGAGCACACGU
B15: target 1 A9U,U19C (mixed)
RNA 1: CACCCGUGCAAAAAUGCAGGGGUCUAAAACUGAGCGGAUAACCUCUCUAUGG
RNA 2: GGGAAUGGAUCCACAUCUACGAAUUCGUACCACAGAGAGGUUUUCCGCUCACCGAGAUCGGAAGAGCACACGU
B16: target 1 insC 3' of 18,insU 3' of 1 (mixed)
RNA 1: CACCCGUGCAAAAAUGCAGGGGUCUAAAACUGAGCGGAUAACCUCUCUAUGG
RNA 2: GGGAAUGGAUCCACAUCUACGAAUUCGUACCAUACGAGAGGUUAUCCGCUCAUCCGAGAUCGGAAGAGCACACGU
B17: target 1 insA 3' of 22,insA 3' of 10 (mixed)
RNA 1: CACCCGUGCAAAAAUGCAGGGGUCUAAAACUGAGCGGAUAACCUCUCUAUGG
RNA 2: GGGAAUGGAUCCACAUCUACGAAUUCGUACACAUAGAGAGGUUAAUCCGCUCACCGAGAUCGGAAGAGCACACGU
B18: target 1 complement block 4-11 (mixed)
RNA 1: CACCCGUGCAAAAAUGCAGGGGUCUAAAACUGAGCGGAUAACCUCUCUAUGG
RNA 2: GGGAAUGGAUCCACAUCUACGAAUUCGUACCAUAGAGAGGAAUAGGCGUCACCGAGAUCGGAAGAGCACACGU
B19: target 1 insU 3' of 20,insG 3' of 10 (mixed)
RNA 1: CACCCGUGCAAAAAUGCAGGGGUCUAAAACUGAGCGGAUAACCUCUCUAUGG
RNA 2: GGGAAUGGAUCCACAUCUACGAAUUCGUACCAUUAGAGAGGUUGAUCCGCUCACCGAGAUCGGAAGAGCACACGU
B20: target 1 U3G,A18G (mixed)
RNA 1: CACCCGUGCAAAAAUGCAGGGGUCUAAAACUGAGCGGAUAACCUCUCUAUGG
RNA 2: GGGAAUGGAUCCACAUCUACGAAUUCGUACCAUGGAGAGGUUAUCCGCGCACCGAGAUCGGAAGAGCACACGU
B21: target 1 insC 3' of 20,insG 3' of 11 (mixed)
RNA 1: CACCCGUGCAAAAAUGCAGGGGUCUAAAACUGAGCGGAUAACCUCUCUAUGG
RNA 2: GGGAAUGGAUCCACAUCUACGAAUUCGUACCACUAGAGAGGUGUAUCCGCUCACCGAGAUCGGAAGAGCACACGU
B22: target 1 C7U,U19G (mixed)
RNA 1: CACCCGUGCAAAAAUGCAGGGGUCUAAAACUGAGCGGAUAACCUCUCUAUGG
RNA 2: GGGAAUGGAUCCACAUCUACGAAUUCGUACCAGAGAGAGGUUAUUCGCUCACCGAGAUCGGAAGAGCACACGU
B23: target 1 insC 3' of 22,insA 3' of 13 (mixed)
RNA 1: CACCCGUGCAAAAAUGCAGGGGUCUAAAACUGAGCGGAUAACCUCUCUAUGG
RNA 2: GGGAAUGGAUCCACAUCUACGAAUUCGUACCCAUAGAGAGAGUUAUCCGCUCACCGAGAUCGGAAGAGCACACGU
B24: target 1 A9U,U10G (mixed)
RNA 1: CACCCGUGCAAAAAUGCAGGGGUCUAAAACUGAGCGGAUAACCUCUCUAUGG
RNA 2: GGGAAUGGAUCCACAUCUACGAAUUCGUACCAUAGAGAGGUGUUCCGCUCACCGAGAUCGGAAGAGCACACGU
B25: target 1 insC 3' of 13,insC 3' of 10 (mixed)
RNA 1: CACCCGUGCAAAAAUGCAGGGGUCUAAAACUGAGCGGAUAACCUCUCUAUGG
RNA 2: GGGAAUGGAUCCACAUCUACGAAUUCGUACCAUAGAGAGCGUUCAUCCGCUCACCGAGAUCGGAAGAGCACACGU
B26: target 1 U8C,C21A (mixed)
RNA 1: CACCCGUGCAAAAAUGCAGGGGUCUAAAACUGAGCGGAUAACCUCUCUAUGG
RNA 2: GGGAAUGGAUCCACAUCUACGAAUUCGUACAAUAGAGAGGUUACCCGCUCACCGAGAUCGGAAGAGCACACGU
B27: target 1 A1U,A9G (mixed)
RNA 1: CACCCGUGCAAAAAUGCAGGGGUCUAAAACUGAGCGGAUAACCUCUCUAUGG
RNA 2: GGGAAUGGAUCCACAUCUACGAAUUCGUACCAUAGAGAGGUUGUCCGCUCUCCGAGAUCGGAAGAGCACACGU

In this series the target is T1, EsCas13d, nuclease-dead. In words: crRNA (strand 1, pre-loaded); Mg2+; 40 mM Tris-HCl pH 7.5, 150 mM NaCl, 6 mM MgCl2, 1 mM DTT, 0.1% Tween-20, 0.2 mg/ml BSA; 25 C; 10 min per concentration, then washed. The settings on record: tags: His6-TwinStrep-SUMO cleaved; N-terminal SNAP kept (SNAP-Surface 488); label: 3' end held by stalled T7 RNA polymerase.
Regarding B1, the Kd worked out at 40 ± 5 nM.
In the case of B2, the dissociation constant Kd was 42 ± 4 nM.
Regarding B3, the Kd worked out at 5.23 ± 0.33 nM.
B4: the Kd turned out to be 14 ± 2.4 nM.
Molecule B5 had an equilibrium dissociation constant (Kd) of 64 ± 11 nM.
For B6, binding was put at a Kd of 27.4 ± 2.6 nM.
Take B7: the Kd was 10.5 ± 0.5 nM.
B8 gave a Kd of 11.4 ± 0.4 nM.
With B9 the figure was 6.6 ± 0.6 nM; with B10, 10.7 ± 0.7 nM.
B11 gave a Kd of 12.5 ± 0.8 nM.
Molecule B12 returned an equilibrium dissociation constant (Kd) of 51 ± 11 nM.
The molecule B13 came in with a Kd of 32.2 ± 3.2 nM.
Molecule B14 had a Kd of 56 ± 13 nM.
As for B15, the dissociation constant Kd is 26.3 ± 2.9 nM.
Take B16: the Kd is 30.7 ± 2.6 nM.
Consider B17, for which the Kd amounted to 14.6 ± 1 nM.
Molecule B18 displayed a Kd of 12.4 ± 0.6 nM.
Take B19: binding was characterised by a dissociation constant (Kd) of 29 ± 6 nM.
B20 returned a Kd of 87 ± 23 nM.
Under B21 stands 6.6 ± 0.5 nM; under B22, 57 ± 7 nM; under B23, 13.4 ± 2 nM.
The molecule B24 yielded a dissociation constant Kd of 21.7 ± 2.1 nM.
Under B25 stands 12.9 ± 1.3 nM; under B26, 44 ± 5 nM.
With B27 the figure was 13.1 ± 1.3 nM.
